# Earlier results in article PMC6780499, “Characterization, Recombinant Production and Structure-Function Analysis of NvCI, A Picomolar Metallocarboxypeptidase Inhibitor from the Marine Snail Nerita versicolor” (Marine Drugs, 2019).
# Legend:
# [1] = biological target: T1, hCPB (Homo sapiens, UniProt P15086); settings: ref Arolas et al., 2005 [12]; cited from earlier work
# T1 sequence (P15086 111-417): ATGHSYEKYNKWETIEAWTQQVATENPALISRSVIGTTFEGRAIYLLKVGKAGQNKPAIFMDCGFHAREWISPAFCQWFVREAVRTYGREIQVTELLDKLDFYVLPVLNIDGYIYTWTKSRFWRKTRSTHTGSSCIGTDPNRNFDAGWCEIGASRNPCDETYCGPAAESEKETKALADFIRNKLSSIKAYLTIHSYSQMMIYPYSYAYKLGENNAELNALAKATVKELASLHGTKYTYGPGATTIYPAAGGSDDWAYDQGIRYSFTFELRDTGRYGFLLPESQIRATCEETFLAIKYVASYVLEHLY
# Text: Table 2 Ki values of various proteinaceous metallocarboxypeptidases (MCPs) inhibitors. | column: Ki (nM) / rPCI (a); Ki (nM) / rTCI (b); Ki (nM) / rLCI (c); Ki (nM) / rhuman latexin (e)
# [2] = biological target: T2, bTAFI (Bos taurus, UniProt Q2KIG3); settings: ref Arolas et al., 2005 [12]; cited from earlier work
# T2 sequence (Q2KIG3 115-423): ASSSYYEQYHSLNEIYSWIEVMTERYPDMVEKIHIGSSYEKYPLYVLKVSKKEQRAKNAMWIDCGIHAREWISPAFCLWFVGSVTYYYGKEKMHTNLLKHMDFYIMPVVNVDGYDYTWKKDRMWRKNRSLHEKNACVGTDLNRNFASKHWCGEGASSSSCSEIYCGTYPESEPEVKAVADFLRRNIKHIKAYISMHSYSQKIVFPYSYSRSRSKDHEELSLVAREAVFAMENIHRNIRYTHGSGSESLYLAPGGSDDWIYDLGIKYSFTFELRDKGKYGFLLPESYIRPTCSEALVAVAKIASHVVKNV
# Text: Table 2 Ki values of various proteinaceous metallocarboxypeptidases (MCPs) inhibitors. | column: Ki (nM) / rPCI (a); Ki (nM) / rTCI (b)
# [3] = biological target: T3, hCPA1 (Homo sapiens, UniProt P15085); settings: ref Arolas et al., 2005 [12]; cited from earlier work
# T3 sequence (P15085 111-419): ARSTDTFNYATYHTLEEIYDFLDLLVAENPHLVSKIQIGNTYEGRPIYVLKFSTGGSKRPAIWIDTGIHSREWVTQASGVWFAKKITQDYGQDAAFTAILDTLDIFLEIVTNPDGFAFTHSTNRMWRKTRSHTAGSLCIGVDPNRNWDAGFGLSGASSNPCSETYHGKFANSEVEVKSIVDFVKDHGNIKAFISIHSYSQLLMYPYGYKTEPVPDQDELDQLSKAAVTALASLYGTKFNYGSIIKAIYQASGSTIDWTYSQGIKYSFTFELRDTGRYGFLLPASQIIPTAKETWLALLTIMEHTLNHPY
# Text: (§1) Table 2 Ki values of various proteinaceous metallocarboxypeptidases (MCPs) inhibitors. | column: Ki (nM) / rPCI (a); Ki (nM) / rTCI (b); Ki (nM) / rLCI (c); Ki (nM) / rACI (d); Ki (nM) / rhuman latexin (e)
# [4] = biological target: T4, hCPA4 (Homo sapiens, UniProt Q9UI42); settings: ref Tanco et al., 2010 [22]; cited from earlier work
# T4 sequence (Q9UI42 114-421): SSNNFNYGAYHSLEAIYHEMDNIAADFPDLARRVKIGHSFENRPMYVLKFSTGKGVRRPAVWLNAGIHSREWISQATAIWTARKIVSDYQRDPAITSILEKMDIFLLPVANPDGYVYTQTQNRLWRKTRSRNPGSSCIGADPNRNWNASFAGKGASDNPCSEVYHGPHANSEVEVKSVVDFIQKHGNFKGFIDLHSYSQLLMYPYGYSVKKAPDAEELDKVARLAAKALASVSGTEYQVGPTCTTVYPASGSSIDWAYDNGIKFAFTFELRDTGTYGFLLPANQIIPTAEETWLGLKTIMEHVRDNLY
# Text: as §1
# [5] = biological target: T5, hCPA2 (Homo sapiens, UniProt P48052); settings: ref Arolas et al., 2005 [12]; cited from earlier work
# T5 sequence (P48052 115-419): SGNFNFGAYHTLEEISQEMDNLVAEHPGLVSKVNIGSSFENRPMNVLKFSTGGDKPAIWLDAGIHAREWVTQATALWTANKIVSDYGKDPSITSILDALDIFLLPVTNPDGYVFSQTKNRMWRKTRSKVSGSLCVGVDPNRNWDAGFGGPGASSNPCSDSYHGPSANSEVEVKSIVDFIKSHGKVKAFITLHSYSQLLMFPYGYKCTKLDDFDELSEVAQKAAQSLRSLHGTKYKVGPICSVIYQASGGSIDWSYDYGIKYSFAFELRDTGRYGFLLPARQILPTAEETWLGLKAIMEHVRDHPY
# Text: as §1
# [6] = biological target: T6, bCPA1 (Bos taurus, UniProt P00730); settings: ref Arolas et al., 2005 [12]; cited from earlier work
# T6 sequence (P00730 111-419): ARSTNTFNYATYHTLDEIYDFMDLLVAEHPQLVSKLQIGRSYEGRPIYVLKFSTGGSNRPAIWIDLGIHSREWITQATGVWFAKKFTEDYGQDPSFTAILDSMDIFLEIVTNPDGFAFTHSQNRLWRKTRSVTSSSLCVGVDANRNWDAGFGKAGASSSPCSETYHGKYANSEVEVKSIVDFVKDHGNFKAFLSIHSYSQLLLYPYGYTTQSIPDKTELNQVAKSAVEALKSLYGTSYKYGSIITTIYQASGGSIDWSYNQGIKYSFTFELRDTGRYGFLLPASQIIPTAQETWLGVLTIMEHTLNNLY
# Text: as §1
# [7] = biological target: T7, hTAFI (Homo sapiens, UniProt Q96IY4); settings: ref Arolas et al., 2005 [12]; cited from earlier work
# T7 sequence (Q96IY4 115-423): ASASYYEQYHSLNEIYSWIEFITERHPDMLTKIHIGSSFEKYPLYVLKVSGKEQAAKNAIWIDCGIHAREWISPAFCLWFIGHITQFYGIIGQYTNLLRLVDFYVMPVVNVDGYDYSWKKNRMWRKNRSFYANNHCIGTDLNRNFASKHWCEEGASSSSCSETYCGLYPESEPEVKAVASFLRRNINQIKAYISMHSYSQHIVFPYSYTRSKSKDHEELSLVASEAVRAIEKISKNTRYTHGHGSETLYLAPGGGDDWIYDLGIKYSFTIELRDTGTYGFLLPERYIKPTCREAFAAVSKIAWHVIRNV
# Text: Table 2 Ki values of various proteinaceous metallocarboxypeptidases (MCPs) inhibitors. | column: Ki (nM) / rPCI (a); Ki (nM) / rTCI (b); Ki (nM) / rACI (d); Ki (nM) / rhuman latexin (e)
# [8] = biological target: T8, pCPB (Sus scrofa, UniProt P09955); settings: ref Arolas et al., 2005 [12]; cited from earlier work
# T8 sequence (P09955 111-416): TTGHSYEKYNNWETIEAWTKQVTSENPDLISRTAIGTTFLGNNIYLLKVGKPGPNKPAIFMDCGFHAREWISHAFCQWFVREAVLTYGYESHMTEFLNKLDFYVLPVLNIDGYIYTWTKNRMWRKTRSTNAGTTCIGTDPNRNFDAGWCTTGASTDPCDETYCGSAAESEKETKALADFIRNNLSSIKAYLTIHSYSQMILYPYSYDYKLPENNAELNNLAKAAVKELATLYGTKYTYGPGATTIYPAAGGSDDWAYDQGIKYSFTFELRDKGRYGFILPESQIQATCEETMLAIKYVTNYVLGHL
# Text: Table 2 Ki values of various proteinaceous metallocarboxypeptidases (MCPs) inhibitors. | column: Ki (nM) / rPCI (a); Ki (nM) / rTCI (b); Ki (nM) / rLCI (c)
substance,measurement,setting,value
"rPCI: recombinant proteinaceous carboxypeptidase inhibitor from potato (QQHADPICNKPCKTHDDCSGAWFCQACWNSARTCGPYVG; UniProt P01075 1-39, looked up) [reference compound]",Ki,[1],1.8 ± 0.3 nM
same,Ki,[2],2.5 ± 0.4 nM
same,Ki,[3],1.6 ± 0.3 nM
same,Ki,[4],1.3 ± 0.1 nM
same,Ki,[5],8.8 ± 0.7 nM
same,Ki,[6],1.6 ± 0.2 nM
same,Ki,[7],5.2 ± 0.5 nM
same,Ki,[8],7.2 ± 0.6 nM
